Reference: the supplement of paper PMC9112550, “Optimization of the antimicrobial peptide Bac7 by deep mutational scanning” (BMC Biology, 2022)

What follows are sequences tested on Escherichia coli TOP10 (assay: shrunken log2 fold change of peptide-encoding DNA abundance (4.5 h post-induction vs induction); higher = less antimicrobial activity (less host growth inhibition)). Conditions: time post-induction: 4.5 h; library: site-saturation at positions 5, 18, 19, 20.
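Further: peptides expressed intracellularly from a pBAD plasmid library in pooled LB shake-flask culture, induced with 0.3% L-arabinose, DNA abundance read by NGS, three biological replicates, DESeq2 with apeglm shrinkage.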

Sequence	shrunken log2 fold change
RRIRWRPPRLPRPRPRPHSLPRP	-0.262
RRIRQRPPRLPRPRPRPKPVPRP	0.407
RRIRQRPPRLPRPRPRPQRLPRP	-0.0136
RRIRCRPPRLPRPRPRPWLMPRP	-0.159
RRIRHRPPRLPRPRPRPRPMPRP	-0.00237
RRIRRRPPRLPRPRPRPIYQPRP	2.25
RRIRGRPPRLPRPRPRPGHGPRP	0.323
RRIRMRPPRLPRPRPRPFRQPRP	0.0135
RRIRPRPPRLPRPRPRPPLSPRP	0.161
RRIRHRPPRLPRPRPRPEHWPRP	0.237
RRIRTRPPRLPRPRPRPMQYPRP	-0.0442
RRIRQRPPRLPRPRPRPQCDPRP	-0.146
RRIRIRPPRLPRPRPRPLSKPRP	-0.901
RRIRQRPPRLPRPRPRPLYFPRP	-0.623
RRIRQRPPRLPRPRPRPQGCPRP	-0.0562
RRIRVRPPRLPRPRPRPNPYPRP	-0.376
RRIRKRPPRLPRPRPRPKSIPRP	-0.0265
RRIRNRPPRLPRPRPRPLFYPRP	-0.586
RRIRRRPPRLPRPRPRPSIKPRP	2.9
RRIRARPPRLPRPRPRPHLKPRP	0.01
RRIRKRPPRLPRPRPRPIICPRP	-0.0679
RRIRARPPRLPRPRPRPCLQPRP	-0.0914
RRIRTRPPRLPRPRPRPVSWPRP	0.522
RRIRLRPPRLPRPRPRPTQIPRP	0.14
RRIRHRPPRLPRPRPRPDCWPRP	0.0871

Sequence	shrunken log2 fold change
RRIRHRPPRLPRPRPRPLRVPRP	0.298
RRIRSRPPRLPRPRPRPHEMPRP	0.0637
RRIRQRPPRLPRPRPRPPRCPRP	0.689
RRIRERPPRLPRPRPRPRDCPRP	0.112
RRIRYRPPRLPRPRPRPWVTPRP	-0.477
RRIRVRPPRLPRPRPRPQFIPRP	-0.128
RRIRNRPPRLPRPRPRPFWMPRP	-0.112
RRIRRRPPRLPRPRPRPIGYPRP	0.0143
RRIRWRPPRLPRPRPRPTDQPRP	0.203
RRIRFRPPRLPRPRPRPMNCPRP	-0.735
RRIRMRPPRLPRPRPRPPKEPRP	-0.0231
RRIRNRPPRLPRPRPRPEYDPRP	-0.0369
RRIRIRPPRLPRPRPRPTNMPRP	-0.427
RRIRPRPPRLPRPRPRPEHGPRP	-0.0552
RRIRPRPPRLPRPRPRPQVEPRP	0.102
RRIRSRPPRLPRPRPRPDVDPRP	0.0112
RRIRQRPPRLPRPRPRPDPTPRP	0.119
RRIRTRPPRLPRPRPRPTWSPRP	0.256
RRIRIRPPRLPRPRPRPVFIPRP	-0.472
RRIRVRPPRLPRPRPRPKLYPRP	-0.0874
RRIRPRPPRLPRPRPRPENQPRP	0.0738
RRIRFRPPRLPRPRPRPMKSPRP	-0.198
RRIRSRPPRLPRPRPRPHPNPRP	-0.239
RRIRWRPPRLPRPRPRPASCPRP	0.241
RRIRRRPPRLPRPRPRPWETPRP	0.00928

Sequence	shrunken log2 fold change
RRIRHRPPRLPRPRPRPNHRPRP	-0.0366
RRIRLRPPRLPRPRPRPCMKPRP	-0.101
RRIRPRPPRLPRPRPRPVMRPRP	0.95
RRIRIRPPRLPRPRPRPHPCPRP	-0.736
RRIRGRPPRLPRPRPRPQQHPRP	0.232
RRIRRRPPRLPRPRPRPTHCPRP	0.562
RRIRARPPRLPRPRPRPSKYPRP	-0.464
RRIRPRPPRLPRPRPRPRPHPRP	0.499
RRIRLRPPRLPRPRPRPTFQPRP	-0.098
RRIRGRPPRLPRPRPRPRMWPRP	0.223
RRIRPRPPRLPRPRPRPSPGPRP	0.0372
RRIRDRPPRLPRPRPRPWYDPRP	-0.6
RRIRVRPPRLPRPRPRPDEGPRP	0.0672
RRIRWRPPRLPRPRPRPRDNPRP	0.0559
RRIRCRPPRLPRPRPRPGLYPRP	-0.432
RRIRERPPRLPRPRPRPGMCPRP	0.248
RRIRNRPPRLPRPRPRPSGLPRP	0.0284
RRIRRRPPRLPRPRPRPWYGPRP	-0.263
RRIRNRPPRLPRPRPRPMLMPRP	-0.0217
RRIRSRPPRLPRPRPRPCNRPRP	0.0326
RRIRWRPPRLPRPRPRPWKAPRP	-0.00884
RRIRQRPPRLPRPRPRPYMNPRP	-0.155
RRIRRRPPRLPRPRPRPWWCPRP	4.82
RRIRNRPPRLPRPRPRPDDWPRP	0.221
RRIRSRPPRLPRPRPRPDYEPRP	-0.221

Sequence	shrunken log2 fold change
RRIRVRPPRLPRPRPRPSIRPRP	-0.285
RRIRPRPPRLPRPRPRPFVIPRP	0.00225
RRIRTRPPRLPRPRPRPVHEPRP	0.247
RRIRWRPPRLPRPRPRPKAMPRP	0.176
RRIRARPPRLPRPRPRPVFVPRP	0.179
RRIRYRPPRLPRPRPRPGNAPRP	0.0744
RRIRNRPPRLPRPRPRPWITPRP	-0.0261
RRIRMRPPRLPRPRPRPFEYPRP	-0.219
RRIRMRPPRLPRPRPRPYKHPRP	-0.872
RRIRDRPPRLPRPRPRPPCEPRP	0.121
RRIRSRPPRLPRPRPRPMAWPRP	-0.00175
RRIRIRPPRLPRPRPRPFRDPRP	-0.111
RRIRYRPPRLPRPRPRPALDPRP	-0.132
RRIRIRPPRLPRPRPRPQTPPRP	-0.0927
RRIRVRPPRLPRPRPRPVQFPRP	-0.488
RRIRQRPPRLPRPRPRPTATPRP	0.0728
RRIRIRPPRLPRPRPRPKHDPRP	-0.463
RRIRYRPPRLPRPRPRPAQRPRP	-0.0772
RRIRCRPPRLPRPRPRPYFGPRP	-0.0436
RRIRDRPPRLPRPRPRPYIQPRP	-0.161
RRIRRRPPRLPRPRPRPGTFPRP	-0.578
RRIRVRPPRLPRPRPRPTNYPRP	-0.519
RRIRFRPPRLPRPRPRPLSYPRP	-0.0166
RRIRNRPPRLPRPRPRPVYMPRP	-0.0311
RRIRARPPRLPRPRPRPVYEPRP	-0.426

Sequence	shrunken log2 fold change
RRIRRRPPRLPRPRPRPSQWPRP	0.264
RRIRIRPPRLPRPRPRPQTDPRP	-0.232
RRIRYRPPRLPRPRPRPNFIPRP	-1.22
RRIRMRPPRLPRPRPRPNMPPRP	-0.286
RRIRQRPPRLPRPRPRPHCRPRP	0.0105
RRIRKRPPRLPRPRPRPICWPRP	0.239
RRIRFRPPRLPRPRPRPASDPRP	-0.32
RRIRDRPPRLPRPRPRPPNVPRP	-0.0362
RRIRDRPPRLPRPRPRPMERPRP	-0.0122
RRIRLRPPRLPRPRPRPFYIPRP	-0.865
RRIRPRPPRLPRPRPRPMPSPRP	-0.0976
RRIRLRPPRLPRPRPRPFIKPRP	-0.66
RRIRIRPPRLPRPRPRPCTKPRP	-0.151
RRIRCRPPRLPRPRPRPGSRPRP	0.235
RRIRERPPRLPRPRPRPGYMPRP	-0.172
RRIRARPPRLPRPRPRPHAEPRP	0.955
RRIRWRPPRLPRPRPRPEISPRP	-0.161
RRIRDRPPRLPRPRPRPESYPRP	0.0185
RRIRNRPPRLPRPRPRPHKDPRP	-0.737
RRIRGRPPRLPRPRPRPIWSPRP	0.15
RRIRMRPPRLPRPRPRPSEPPRP	0.33
RRIRGRPPRLPRPRPRPKVYPRP	-0.0773
RRIRVRPPRLPRPRPRPMDYPRP	-0.0122
RRIRVRPPRLPRPRPRPDCNPRP	-0.497
RRIRPRPPRLPRPRPRPREYPRP	0.115

Sequence	shrunken log2 fold change
RRIRYRPPRLPRPRPRPTRFPRP	0.0879
RRIRRRPPRLPRPRPRPTYTPRP	-0.214
RRIRDRPPRLPRPRPRPAKEPRP	0.0263
RRIRARPPRLPRPRPRPFAWPRP	0.122
RRIRKRPPRLPRPRPRPEQFPRP	-0.0303
RRIRKRPPRLPRPRPRPIGEPRP	-0.0126
RRIRNRPPRLPRPRPRPMMQPRP	-0.208
RRIRIRPPRLPRPRPRPHEDPRP	-0.182
RRIRTRPPRLPRPRPRPFHHPRP	-0.775
RRIRVRPPRLPRPRPRPAREPRP	0.254
RRIRWRPPRLPRPRPRPLCNPRP	0.0306
RRIRYRPPRLPRPRPRPWEAPRP	-0.271
RRIRPRPPRLPRPRPRPPEAPRP	0.0126
RRIRIRPPRLPRPRPRPHKGPRP	-0.145
RRIRPRPPRLPRPRPRPASNPRP	-0.231
RRIRARPPRLPRPRPRPLWWPRP	0.648
RRIRWRPPRLPRPRPRPERWPRP	1.14
RRIRDRPPRLPRPRPRPHASPRP	0.178
RRIRTRPPRLPRPRPRPKAWPRP	0.255
RRIRLRPPRLPRPRPRPPGEPRP	0.196
RRIRQRPPRLPRPRPRPLGCPRP	-0.0282
RRIRNRPPRLPRPRPRPMLGPRP	0.0259
RRIRFRPPRLPRPRPRPSFLPRP	-0.572
RRIRWRPPRLPRPRPRPAERPRP	0.0973
RRIRPRPPRLPRPRPRPHCFPRP	-0.497
